The nature of the data set: protein stability index of a GFP-peptide fusion (GPS, HEK-293T) (PSI 1-6); higher = more stable.
[1] abbreviates: treatment: DMSO, c terminus: a fixed tail appended.
The mark [2] stands for this setting: treatment: MLN4924 1 uM, 8 h, c terminus: a fixed tail appended.
[3] abbreviates: treatment: DMSO, c terminus: native.
Where [4] appears, read: treatment: MLN4924 1 uM, 8 h, c terminus: native.

± gives the standard deviation.
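Also: 24-mer peptide tiles fused after GFP, lentivirally expressed, FACS-sorted into six equal bins by GFP/DsRed ratio, decoded by Illumina sequencing, PSI is the read-weighted mean bin number.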

Turning to PSEICDRLVNEYVELVNAACNFEP [ZER1], the protein stability index was found to be 3.15 ± 0.3 under setting [1] and 3.17 ± 0.23 under setting [2].

In turn, PPPGSLSRTQEPSLGKQKVFIIRK [SOAT2] came in with a protein stability index under setting [1] of 3.51 ± 0.17 and a protein stability index under setting [2] of 3.73 ± 0.17.

On to TNEKMLKAVFGKHGPISEVLLIKD [RBMY1A1], for which the protein stability index under setting [1] worked out at 2.82 ± 0.24 and the protein stability index under setting [2] worked out at 2.96 ± 0.15.

As for ARDVQKIIGDYFSDQDPRVRTAAI [INTS4], the protein stability index is, setting by setting: under setting [1], 3.03 ± 0.29; under setting [2], 3.15 ± 0.21.

QEFSDVERAIETLIKNFHQYSVEG [S100A14]: the protein stability index worked out at 2.33 ± 0.33 under setting [1] and 2.59 ± 0.43 under setting [2].

Regarding NKPREHIIDCGDIVWSLAFGSSVP [WSB1], the protein stability index reads like this: under setting [1], 2.17 ± 0.38; under setting [2], 2.07 ± 0.2.

Turning to ERLAHSRAAAAAAVAAATAAVEGS [KCNA4], the protein stability index turned out to be 4.38 ± 0.2 under setting [1] and 4.25 ± 0.29 under setting [2].

Take VVTAEAVAVLKGEQEKEAQHKDQT [MAP2]: the protein stability index reads like this: under setting [1], 5.49 ± 0.12; under setting [2], 5.28 ± 0.21.

The sequence AESRELPVRCAGDWLPRGLGWGGR [ALG2] yielded a protein stability index under setting [1] of 2.53 ± 0.053 and a protein stability index under setting [2] of 2.54 ± 0.29.

SKYGRDWERYTAAVPYRLLPGIF [DHCR7]: the protein stability index under setting [3] is 2.87 ± 0.4 and the protein stability index under setting [4] was found to be 2.57 ± 0.46.

Take GTGRSAKEQVLRKGTENLQRAQAE [FCHSD1]: the protein stability index was 5.09 ± 0.19 under setting [1] and 5.02 ± 0.4 under setting [2].

On to EIALAPYQHLEEDMKSLKQVLEMK [MTUS2], for which the protein stability index under setting [1] turned out to be 3.62 ± 0.17 and the protein stability index under setting [2] worked out at 3.65 ± 0.49.

Turning to SAGNAPLNEEINIASSDSEVEIVG [C18orf25], the protein stability index stood at 5.27 ± 0.31 under setting [1] and 5.46 ± 0.19 under setting [2].

With TKGEEISVYVKLAGEREDLWAGSK [MIA2], the protein stability index was 3.36 ± 0.6 under setting [1] and 3.83 ± 0.19 under setting [2].

In the case of ASAGKRRCFWLGMEGLETAEGSNS [SDE2], the protein stability index was 3.62 ± 0.26 under setting [1] and 3.84 ± 0.45 under setting [2].

As for LVGDRDVGKSEILESLQDGAAESP [RAB40A], the protein stability index under setting [1] was 5.57 ± 0.17 and the protein stability index under setting [2] stood at 5.48 ± 0.21.

ILIASRDIAAGEELLYDYGDRSKA [KMT5A]: the protein stability index worked out at 3.44 ± 0.45 under setting [1] and 3.64 ± 0.65 under setting [2].

Consider LSGVSCFVMFLCLADYLVPILAPR [ARL6IP1], for which the protein stability index reads like this: under setting [1], 3.5 ± 0.071; under setting [2], 3.37 ± 0.44.

Turning to PEFDYLKSLEIEEKINKIKWLPQQ [PPP2R2C], the protein stability index worked out at 3.52 ± 0.23 under setting [1] and 3.58 ± 0.2 under setting [2].

On to RDVAAEAVARSPKRPAWGSRRFEA [POMT2], for which the protein stability index is, setting by setting: under setting [1], 3.73 ± 0.23; under setting [2], 3.94 ± 0.085.

On to ETLKHIKATEPTETVQTWIELLTG [GOLPH3L], for which the protein stability index was found to be 2.59 ± 0.2 under setting [1] and 2.86 ± 0.22 under setting [2].

As to SVLEQLELQEKQKNEKLISLQEQL [TAF7L], the protein stability index is, setting by setting: under setting [1], 4.24 ± 0.25; under setting [2], 4.19 ± 0.3.

For PREDGASVNDQCGFGVLRLDADAA [TSPAN10], the protein stability index reads like this: under setting [1], 4.38 ± 0.31; under setting [2], 4.15 ± 0.17.

For the sequence SAAAATAELLKKQEELNRKAEELD [SCAMP3], the protein stability index is 5.72 ± 0.16 under setting [1] and 5.52 ± 0.48 under setting [2].

KALEDFEDLCDRVFSDEDSELDN [FAM9B]: the protein stability index reads like this: under setting [3], 4.98 ± 0.16; under setting [4], 5.17 ± 0.3.

NLAFGRRCEELEDARYKLHHHLHK [TEKT4] came in with a protein stability index under setting [1] of 3.2 ± 0.22 and a protein stability index under setting [2] of 3.2 ± 0.16.

Consider DDLRINLWHLAITDRSFNIVDIKP [PPP2R2C], for which the protein stability index runs as follows: under setting [1], 2.19 ± 0.2; under setting [2], 2.17 ± 0.19.

Turning to QRLEEETRKREDAEHNLVLFRKDV [PRPH], the protein stability index is 5.12 ± 0.18 under setting [1] and 5.13 ± 0.17 under setting [2].

As to VWAHNLIAIARLRGSDLKVLEVTE [FBXO33], the protein stability index reads like this: under setting [1], 2.63 ± 0.85; under setting [2], 2.95 ± 1.1.

For the sequence QGYTINVPWNQVGMRDADYIAAFL [HDAC6], the protein stability index was found to be 2.25 ± 0.22 under setting [1] and 2.46 ± 0.37 under setting [2].

Turning to TSLTALSLASASPPLSGRSTPKLT [PPFIA4], the protein stability index reads like this: under setting [1], 4.17 ± 0.08; under setting [2], 4.13 ± 0.12.

With TRPSGNNGNRRRRKLRKTVNGDGS [PHTF1], the protein stability index is, setting by setting: under setting [1], 4.83 ± 0.2; under setting [2], 5.03 ± 0.12.

Take SYAFPKEFPYRMNHILECEFYLLE [CCNC]: the protein stability index is, setting by setting: under setting [1], 2.24 ± 0.57; under setting [2], 2.7 ± 1.1.

Consider IREDRDRARLDSMVLLIMKLDQLD [DLC1], for which the protein stability index turned out to be 2.35 ± 0.45 under setting [1] and 2.18 ± 0.32 under setting [2].

As for FNCIRAAIAPFQSAGSPPELQGLP [NET1], the protein stability index reads like this: under setting [1], 2.67 ± 0.2; under setting [2], 2.72 ± 0.2.

In the case of MFPVAPKPQDSSQPSDRLMTEKQQ [CEP70], the protein stability index reads like this: under setting [1], 5.28 ± 0.2; under setting [2], 5.24 ± 0.11.

In turn, FIARLQGSILQFNPEVGIFVSIAQ [SMG5] gave a protein stability index under setting [1] of 2.77 ± 0.59 and a protein stability index under setting [2] of 2.64 ± 0.45.

Take ISKSLELCNEISLSEIKDAPKVNA [DLC1]: the protein stability index under setting [1] came out at 4.12 ± 0.39 and the protein stability index under setting [2] is 4.21 ± 0.066.

In turn, KTEDENKQSFLDGGKGHHLPSENL [TOR1AIP2] returned a protein stability index under setting [1] of 5.4 ± 0.21 and a protein stability index under setting [2] of 5.27 ± 0.22.

NLPKFCHECGTKYPVEWAKFCCEC [ZC2HC1A]: the protein stability index came out at 5.275 ± 0.001 under setting [1] and 5.557 ± 0.049 under setting [2].

Regarding SLLFVVMFIPETKGCSLEQISMEL [SLC2A12], the protein stability index is, setting by setting: under setting [1], 2.93 ± 0.53; under setting [2], 3.2 ± 0.13.

Take HARLSDIWAKTPPITRKAAQLYTL [DHCR7]: the protein stability index stood at 2.29 ± 0.22 under setting [1] and 2.3 ± 0.29 under setting [2].

Take SGRGTGRGGGGGGGGGAPRGRYGP [SRSF1]: the protein stability index reads like this: under setting [1], 4.79 ± 0.24; under setting [2], 4.83 ± 0.15.

On to LTEDMYAQDSIELLTTSGIQFKKH [CNOT7], for which the protein stability index was found to be 3.93 ± 0.23 under setting [1] and 4.09 ± 0.32 under setting [2].

In the case of YQNELHKFLIWDTAGQERFRALAP [RAB22A], the protein stability index runs as follows: under setting [1], 2.29 ± 0.045; under setting [2], 2.46 ± 0.37.

QVLNAIEAYTEHRPEITSRAINLL [ZER1] yielded a protein stability index under setting [1] of 2.56 ± 0.27 and a protein stability index under setting [2] of 2.66 ± 0.32.

As for RGQVGLVPKNYVVVLSDGPALHPA [NCK2], the protein stability index reads like this: under setting [1], 2.56 ± 0.29; under setting [2], 2.43 ± 0.23.

In the case of GTIFIRNVLLFKKQNPGKFCLLSC [RETREG3], the protein stability index runs as follows: under setting [1], 2.7 ± 0.6; under setting [2], 2.89 ± 0.34.

Turning to KVRALEEANADLEVKIRDWHLKQS [KRT13], the protein stability index by setting is: under setting [1], 4.05 ± 0.2; under setting [2], 4.22 ± 0.13.

Turning to MAKRIGKDLSNTFAKLEKLTILAK [STX5], the protein stability index reads like this: under setting [1], 2.77 ± 0.69; under setting [2], 2.77 ± 0.53.

For the sequence VPEKRDSGMTEVERTYSANCSDFL [SPATS1], the protein stability index was 4.7 ± 0.17 under setting [1] and 4.89 ± 0.14 under setting [2].

Take ELERFVNLHSLALDFCDFTAEMAR [FBXO33]: the protein stability index under setting [1] worked out at 2.23 ± 0.11 and the protein stability index under setting [2] came to 2.61 ± 0.29.

As for LVRGHRRRLLRRLSPSRGVAQCLR [ZSWIM9], the protein stability index turned out to be 3.2 ± 0.23 under setting [1] and 3.41 ± 0.25 under setting [2].

Take FACLSVLFVTVTAVNLSVSTLPSL [KCNG1]: the protein stability index reads like this: under setting [1], 3.15 ± 0.28; under setting [2], 3.46 ± 0.23.

Turning to MSSEVSARRDAKKLVRSPSGLRMV [ZFYVE21], the protein stability index was 3.67 ± 0.091 under setting [1] and 3.58 ± 0.28 under setting [2].

With FISVFSNLLESKADGIEVSYNACG [ZER1], the protein stability index was 2.3 ± 0.49 under setting [1] and 2.17 ± 0.17 under setting [2].

In the case of ELVENIKSVLKSDEEHMEEAITSA [FAM189A2], the protein stability index was found to be 3.64 ± 0.16 under setting [1] and 3.79 ± 0.41 under setting [2].

For the sequence TGTKKVTRILDGGNPFLDVPQALS [PSD2], the protein stability index is, setting by setting: under setting [1], 3.24 ± 0.36; under setting [2], 3.4 ± 0.12.

As for RAGHHPNQYATCRLCGRQVSRGPG [ZBED2], the protein stability index under setting [1] came out at 2.35 ± 0.38 and the protein stability index under setting [2] is 2.67 ± 0.59.

QLDMFYRNWALKESFIKAIGVGLG [AASDHPPT]: the protein stability index by setting is: under setting [1], 2.78 ± 0.1; under setting [2], 2.92 ± 0.58.

For the sequence LQREKEFKAKEAAALGSRGSCSTE [ATP6V1G1], the protein stability index reads like this: under setting [1], 5.12 ± 0.14; under setting [2], 5.1 ± 0.48.

For the sequence RRALAPPSAGFRCCAAPGPHVALA [ANKRD9], the protein stability index is 1.98 ± 0.47 under setting [1] and 2.25 ± 0.31 under setting [2].

Regarding ATLTQVSVEYGYRPGATAVPTPLT [FCHO1], the protein stability index was 2.39 ± 0.36 under setting [1] and 2.47 ± 0.26 under setting [2].

As for DHLTTVLYLQLAICSSLQNLEKTI [C8orf76], the protein stability index is 3.21 ± 0.57 under setting [1] and 3.41 ± 0.35 under setting [2].

On to PSCLACNRQCLCSAESMVEYGTCM [SPRY1], for which the protein stability index turned out to be 2.84 ± 0.58 under setting [1] and 2.84 ± 0.48 under setting [2].

Sequence TTKGTSEMSEKRGPTSSNPRKRHR [MLH1] registered a protein stability index under setting [1] of 5.14 ± 0.41 and a protein stability index under setting [2] of 5.04 ± 0.079.

On to MAMVVSTWRDPQDEVPGSQGSQAS [NR2F2], for which the protein stability index was 4.05 ± 0.27 under setting [1] and 4.32 ± 0.25 under setting [2].

In the case of KYTPSNKHGFSWAVPKFMKRIKVP [DLC1], the protein stability index under setting [1] was 2.49 ± 0.36 and the protein stability index under setting [2] was 2.6 ± 0.44.

DEHEHPLTSELDPEKEQEIETIKI [MIA2] registered a protein stability index under setting [1] of 5.33 ± 0.42 and a protein stability index under setting [2] of 5.36 ± 0.42.

GPMMKLKRHFVAQKYKKQIDHMYH [ACSBG2] returned a protein stability index under setting [1] of 2.1 ± 0.14 and a protein stability index under setting [2] of 2.42 ± 0.37.

As to VVHEDFREDILSCYDVYSPDKEEQ [PKD2L1], the protein stability index under setting [1] is 4.7 ± 0.33 and the protein stability index under setting [2] was found to be 4.69 ± 0.082.

On to IVVIPGKVEEVSLPEQVDIIISEP [CARM1], for which the protein stability index was determined as 2.47 ± 0.45 under setting [1] and 2.16 ± 0.29 under setting [2].

Values taken from the supplement of paper PMC10567573.
